In patent US20140087995A1 (published 2014):
Numbered stars: 1 amine (or outer) side, 2 acyl side, 3 side chain; on linkers, the order of the positions; unused ones are H or OH. Bridge positions count the residues as written; N and C are the ends. Side chains are listed from the residue outwards. Ends that are not written are not given here. * marks the point of attachment. C20 diacid = O=C(O)CCCCCCCCCCCCCCCCCCC(=O)*; γGlu = O=C(O)[C@H](CCC(=O)[*:2])N[*:1]

T1: human calcitonin receptor (human, UniProt P30988 25-474)
T1 construct: whole, on cells; also called hCTR; hCT
T1 sequence (looked up): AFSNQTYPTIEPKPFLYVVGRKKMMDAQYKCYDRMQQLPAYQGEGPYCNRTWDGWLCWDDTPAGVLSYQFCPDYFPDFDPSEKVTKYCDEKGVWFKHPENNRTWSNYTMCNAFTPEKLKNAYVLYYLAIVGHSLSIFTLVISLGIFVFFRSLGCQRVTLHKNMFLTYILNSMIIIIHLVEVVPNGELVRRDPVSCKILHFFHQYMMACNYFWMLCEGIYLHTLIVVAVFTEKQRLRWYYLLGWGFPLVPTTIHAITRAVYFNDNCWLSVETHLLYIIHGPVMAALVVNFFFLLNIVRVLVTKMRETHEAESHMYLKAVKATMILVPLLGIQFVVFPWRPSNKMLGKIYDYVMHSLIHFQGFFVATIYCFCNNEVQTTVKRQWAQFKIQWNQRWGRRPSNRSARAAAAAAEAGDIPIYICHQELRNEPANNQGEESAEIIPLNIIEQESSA

B1: N^ε1-[(4S)-4-carboxy-4-(19-carboxynonadecanoylamino)butanoyl]-[Glu14,Arg17,Pro21,Pro27,His35]-h-amylin (peptide)
peptide: K([γGlu-C20 diacid])CNTATCATQRLAEFLRHSSPNFGAIPSSTNVGSHTY-NH2
modifications: disulfide 2-7; N-terminus assumed
SMILES: CC[C@H](C)[C@H](NC(=O)[C@H](C)NC(=O)CNC(=O)[C@H](Cc1ccccc1)NC(=O)[C@H](CC(N)=O)NC(=O)[C@@H]1CCCN1C(=O)[C@H](CO)NC(=O)[C@H](CO)NC(=O)[C@H](Cc1c[nH]cn1)NC(=O)[C@H](CCCNC(=N)N)NC(=O)[C@H](CC(C)C)NC(=O)[C@H](Cc1ccccc1)NC(=O)[C@H](CCC(=O)O)NC(=O)[C@H](C)NC(=O)[C@H](CC(C)C)NC(=O)[C@H](CCCNC(=N)N)NC(=O)[C@H](CCC(N)=O)NC(=O)[C@@H](NC(=O)[C@H](C)NC(=O)[C@@H]1CSSC[C@H](NC(=O)[C@@H](N)CCCCNC(=O)CC[C@H](NC(=O)CCCCCCCCCCCCCCCCCCC(=O)O)C(=O)O)C(=O)N[C@@H](CC(N)=O)C(=O)N[C@@H]([C@@H](C)O)C(=O)N[C@@H](C)C(=O)N[C@@H]([C@@H](C)O)C(=O)N1)[C@@H](C)O)C(=O)N1CCC[C@H]1C(=O)N[C@@H](CO)C(=O)N[C@@H](CO)C(=O)N[C@H](C(=O)N[C@@H](CC(N)=O)C(=O)N[C@H](C(=O)NCC(=O)N[C@@H](CO)C(=O)N[C@@H](Cc1c[nH]cn1)C(=O)N[C@H](C(=O)N[C@@H](Cc1ccc(O)cc1)C(N)=O)[C@@H](C)O)C(C)C)[C@@H](C)O
B2: N^ε1-[(4S)-4-carboxy-4-[[(4S)-4-carboxy-4-(19-carboxynonadecanoylamino)butanoyl]amino]butanoyl]-[Asp14,Arg17,Pro21,Pro27,Pro34,Arg35]-h-amylin (peptide)
peptide: K([γGlu-γGlu-C20 diacid])CNTATCATQRLADFLRHSSPNFGAIPSSTNVGPRTY-NH2
modifications: disulfide 2-7; N-terminus assumed
SMILES: CC[C@H](C)[C@H](NC(=O)[C@H](C)NC(=O)CNC(=O)[C@H](Cc1ccccc1)NC(=O)[C@H](CC(N)=O)NC(=O)[C@@H]1CCCN1C(=O)[C@H](CO)NC(=O)[C@H](CO)NC(=O)[C@H](Cc1c[nH]cn1)NC(=O)[C@H](CCCNC(=N)N)NC(=O)[C@H](CC(C)C)NC(=O)[C@H](Cc1ccccc1)NC(=O)[C@H](CC(=O)O)NC(=O)[C@H](C)NC(=O)[C@H](CC(C)C)NC(=O)[C@H](CCCNC(=N)N)NC(=O)[C@H](CCC(N)=O)NC(=O)[C@@H](NC(=O)[C@H](C)NC(=O)[C@@H]1CSSC[C@H](NC(=O)[C@@H](N)CCCCNC(=O)CC[C@H](NC(=O)CC[C@H](NC(=O)CCCCCCCCCCCCCCCCCCC(=O)O)C(=O)O)C(=O)O)C(=O)N[C@@H](CC(N)=O)C(=O)N[C@@H]([C@@H](C)O)C(=O)N[C@@H](C)C(=O)N[C@@H]([C@@H](C)O)C(=O)N1)[C@@H](C)O)C(=O)N1CCC[C@H]1C(=O)N[C@@H](CO)C(=O)N[C@@H](CO)C(=O)N[C@H](C(=O)N[C@@H](CC(N)=O)C(=O)N[C@H](C(=O)NCC(=O)N1CCC[C@H]1C(=O)N[C@@H](CCCNC(=N)N)C(=O)N[C@H](C(=O)N[C@@H](Cc1ccc(O)cc1)C(N)=O)[C@@H](C)O)C(C)C)[C@@H](C)O
notes: also called compound 130
B3: N^ε1-[(4S)-4-carboxy-4-[[(4S)-4-carboxy-4-(19-carboxynonadecanoylamino)butanoyl]amino]butanoyl]-[Arg17,Pro21,Pro27,Pro31,Pro34,Arg35]-h-amylin (peptide)
peptide: K([γGlu-γGlu-C20 diacid])CNTATCATQRLANFLRHSSPNFGAIPSSTPVGPRTY-NH2
modifications: disulfide 2-7; N-terminus assumed
SMILES: CC[C@H](C)[C@H](NC(=O)[C@H](C)NC(=O)CNC(=O)[C@H](Cc1ccccc1)NC(=O)[C@H](CC(N)=O)NC(=O)[C@@H]1CCCN1C(=O)[C@H](CO)NC(=O)[C@H](CO)NC(=O)[C@H](Cc1c[nH]cn1)NC(=O)[C@H](CCCNC(=N)N)NC(=O)[C@H](CC(C)C)NC(=O)[C@H](Cc1ccccc1)NC(=O)[C@H](CC(N)=O)NC(=O)[C@H](C)NC(=O)[C@H](CC(C)C)NC(=O)[C@H](CCCNC(=N)N)NC(=O)[C@H](CCC(N)=O)NC(=O)[C@@H](NC(=O)[C@H](C)NC(=O)[C@@H]1CSSC[C@H](NC(=O)[C@@H](N)CCCCNC(=O)CC[C@H](NC(=O)CC[C@H](NC(=O)CCCCCCCCCCCCCCCCCCC(=O)O)C(=O)O)C(=O)O)C(=O)N[C@@H](CC(N)=O)C(=O)N[C@@H]([C@@H](C)O)C(=O)N[C@@H](C)C(=O)N[C@@H]([C@@H](C)O)C(=O)N1)[C@@H](C)O)C(=O)N1CCC[C@H]1C(=O)N[C@@H](CO)C(=O)N[C@@H](CO)C(=O)N[C@H](C(=O)N1CCC[C@H]1C(=O)N[C@H](C(=O)NCC(=O)N1CCC[C@H]1C(=O)N[C@@H](CCCNC(=N)N)C(=O)N[C@H](C(=O)N[C@@H](Cc1ccc(O)cc1)C(N)=O)[C@@H](C)O)C(C)C)[C@@H](C)O
B4: N^ε1-[(4S)-4-carboxy-4-[[(4S)-4-carboxy-4-(19-carboxynonadecanoylamino)butanoyl]amino]butanoyl]-[Glu14,Arg17,Pro21,Pro31,Pro34,Glu35]-h-amylin (peptide)
peptide: K([γGlu-γGlu-C20 diacid])CNTATCATQRLAEFLRHSSPNFGAILSSTPVGPETY-NH2
modifications: disulfide 2-7 (inferred)
B5: N^ε1-[(4S)-4-carboxy-4-[[(4S)-4-carboxy-4-(19-carboxynonadecanoylamino)butanoyl]amino]butanoyl]-[Glu14,Arg17,Pro21,Pro27,Pro34,Phe37]-h-amylin (peptide)
peptide: K([γGlu-γGlu-C20 diacid])CNTATCATQRLAEFLRHSSPNFGAIPSSTNVGPNTF-NH2
modifications: disulfide 2-7; N-terminus assumed
SMILES: CC[C@H](C)[C@H](NC(=O)[C@H](C)NC(=O)CNC(=O)[C@H](Cc1ccccc1)NC(=O)[C@H](CC(N)=O)NC(=O)[C@@H]1CCCN1C(=O)[C@H](CO)NC(=O)[C@H](CO)NC(=O)[C@H](Cc1c[nH]cn1)NC(=O)[C@H](CCCNC(=N)N)NC(=O)[C@H](CC(C)C)NC(=O)[C@H](Cc1ccccc1)NC(=O)[C@H](CCC(=O)O)NC(=O)[C@H](C)NC(=O)[C@H](CC(C)C)NC(=O)[C@H](CCCNC(=N)N)NC(=O)[C@H](CCC(N)=O)NC(=O)[C@@H](NC(=O)[C@H](C)NC(=O)[C@@H]1CSSC[C@H](NC(=O)[C@@H](N)CCCCNC(=O)CC[C@H](NC(=O)CC[C@H](NC(=O)CCCCCCCCCCCCCCCCCCC(=O)O)C(=O)O)C(=O)O)C(=O)N[C@@H](CC(N)=O)C(=O)N[C@@H]([C@@H](C)O)C(=O)N[C@@H](C)C(=O)N[C@@H]([C@@H](C)O)C(=O)N1)[C@@H](C)O)C(=O)N1CCC[C@H]1C(=O)N[C@@H](CO)C(=O)N[C@@H](CO)C(=O)N[C@H](C(=O)N[C@@H](CC(N)=O)C(=O)N[C@H](C(=O)NCC(=O)N1CCC[C@H]1C(=O)N[C@@H](CC(N)=O)C(=O)N[C@H](C(=O)N[C@@H](Cc1ccccc1)C(N)=O)[C@@H](C)O)C(C)C)[C@@H](C)O
B6: N^ε1-[(4S)-4-carboxy-4-(19-carboxynonadecanoylamino)butanoyl]-[His14,Arg17,Pro21,Pro27,Pro31,Pro34]-h-amylin (peptide)
peptide: K([γGlu-C20 diacid])CNTATCATQRLAHFLRHSSPNFGAIPSSTPVGPNTY-NH2
modifications: disulfide 2-7; N-terminus assumed
SMILES: CC[C@H](C)[C@H](NC(=O)[C@H](C)NC(=O)CNC(=O)[C@H](Cc1ccccc1)NC(=O)[C@H](CC(N)=O)NC(=O)[C@@H]1CCCN1C(=O)[C@H](CO)NC(=O)[C@H](CO)NC(=O)[C@H](Cc1c[nH]cn1)NC(=O)[C@H](CCCNC(=N)N)NC(=O)[C@H](CC(C)C)NC(=O)[C@H](Cc1ccccc1)NC(=O)[C@H](Cc1c[nH]cn1)NC(=O)[C@H](C)NC(=O)[C@H](CC(C)C)NC(=O)[C@H](CCCNC(=N)N)NC(=O)[C@H](CCC(N)=O)NC(=O)[C@@H](NC(=O)[C@H](C)NC(=O)[C@@H]1CSSC[C@H](NC(=O)[C@@H](N)CCCCNC(=O)CC[C@H](NC(=O)CCCCCCCCCCCCCCCCCCC(=O)O)C(=O)O)C(=O)N[C@@H](CC(N)=O)C(=O)N[C@@H]([C@@H](C)O)C(=O)N[C@@H](C)C(=O)N[C@@H]([C@@H](C)O)C(=O)N1)[C@@H](C)O)C(=O)N1CCC[C@H]1C(=O)N[C@@H](CO)C(=O)N[C@@H](CO)C(=O)N[C@H](C(=O)N1CCC[C@H]1C(=O)N[C@H](C(=O)NCC(=O)N1CCC[C@H]1C(=O)N[C@@H](CC(N)=O)C(=O)N[C@H](C(=O)N[C@@H](Cc1ccc(O)cc1)C(N)=O)[C@@H](C)O)C(C)C)[C@@H](C)O
B7: N^ε1-[(4S)-4-carboxy-4-[[(4S)-4-carboxy-4-(19-carboxynonadecanoylamino)butanoyl]amino]butanoyl]-[Asp14,Arg17,Pro21,Pro27,Pro34,Glu35]-h-amylin (peptide)
peptide: K([γGlu-γGlu-C20 diacid])CNTATCATQRLADFLRHSSPNFGAIPSSTNVGPETY-NH2
modifications: disulfide 2-7
B8: N^ε1-[(4S)-4-carboxy-4-[[(4S)-4-carboxy-4-(19-carboxynonadecanoylamino)butanoyl]amino]butanoyl]-[Glu14,Arg17,Pro21,Pro27,Pro34,His35]-h-amylin (peptide)
peptide: K([γGlu-γGlu-C20 diacid])CNTATCATQRLAEFLRHSSPNFGAIPSSTNVGPHTY-NH2
modifications: disulfide 2-7 (inferred)
B9: N^ε1-[(4S)-4-carboxy-4-(19-carboxynonadecanoylamino)butanoyl]-[Glu14,Arg17,Pro21,Pro27,Pro34,His35]-h-amylin (peptide)
peptide: K([γGlu-C20 diacid])CNTATCATQRLAEFLRHSSPNFGAIPSSTNVGPHTY-NH2
modifications: disulfide 2-7

Target: T1, human calcitonin receptor
Assay: ratio of IC50 at human calcitonin receptor to IC50 at human amylin receptor (SPA competition assays)
Procedure, shortened: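 Competition binding by SPA with cell membranes (35 ng/μL) and SPA beads in 50 mM Hepes pH 7.4 with 1 mM CaCl2, 5 mM MgCl2, 0.1% OA and 0.02% Tween20. Incubated 120 min at 25 °C with shaking, then counted.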

Ratio hCT/hAmylin binding	Binder
26.4	B1
280	B2
48.6	B3
22.6	B4
18	B5
24.8	B6
49.8	B7
27.3	B8
21.2	B9

Target: T1, human calcitonin receptor
Assay: SPA competition against 125I-calcitonin, membranes of BHK cells with human calcitonin receptor (Assay VII)
Procedure, shortened: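 BHK hCTR membranes 35 ng/μL + SPA beads 0.05 mg/well; buffer 50 mM Hepes pH 7.4, 1 mM CaCl2, 5 mM MgCl₂, 0.1% OA, 0.02% Tween20. 120 min, 25° C., shaking. Scintillation count; IC50 by one-site binding competition.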

IC50 [nM]	Binder
26.1	B1
127	B2
42.8	B3
1.56	B4
2.73	B5
2.04	B6
8.56	B7
10.3	B8
3.8	B9
